Literature values, collected in PMC1775043.

Target: hnRNP A2 (Homo sapiens) (UniProt P22626)
Assay: FCS

- Kd: 0.1 nM
Substance: hnRNP A2 (from UniProt P22626)
